{"source": "the nanobody polyreactivity screen of Harvey et al. (2022)", "data": [{"experiment": "yeast display, Sf9 membrane polyspecificity reagent, FACS + sequencing; frameworks hold sequencing errors", "method_in_brief": "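Genes from sorted yeast were amplified by colony PCR, read by MiSeq 2 × 250 sequencing and filtered on CDR length. These cells carried a synthetic nanobody library in Saccharomyces cerevisiae BJ5465 and were sorted by FACS into low and high (top ~1%) gates on anti-HA and streptavidin fluorescence. Polyreactivity is labelled according to the gate of origin.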", "values": [{"sequence": "QVQLVESGGGLVQAGGSLRLSCAASGNIFYYYAMGWYRQAPGKERELVADITSGGDTDYADSVKGRFTISRDNAKNTVYLQMNSLKPEDTAVYYCNAEYYFHVTYDYWGQGTQVTVSS", "polyreactivity (PSR sort gate)": "low polyreactivity"}, {"sequence": "QVQLVESGGGLVQAGGSLRLSCAASGNIIDFYAMGWYRQAPGKERELVAAITSGGSTNFADSVKGRFTISRDNAKNTVYLQMNSLKPEDTAVYYCAARQWFSHRRWGGSRYDYWGQGTQVTVSS", "polyreactivity (PSR sort gate)": "high polyreactivity"}, {"sequence": "QVQLVESGGGLVQAGGSLRLSCAASGNILIGNVMGWYRPAPGKERELVAAITSGGDTYYADSVKGRFTITRDNAKNTVYLQMNSLKPEDTAVYYCAADRPGQPKYEYWGQGTQVTVSS", "polyreactivity (PSR sort gate)": "low polyreactivity"}, {"sequence": "QVQLVESGGGLVQAGGSLRLSCAASGNISPGNVMGWYRQAPGKERELVAAITISGGSTYYADSVKGRFTISRDNAKNTVYLQMNSLKPEDTAVYYCAKRTKFYYTGSGYGKYYYWGQGTQVTVSS", "polyreactivity (PSR sort gate)": "high polyreactivity"}, {"sequence": "QVQLVESGGGLVQAGGSLRLSCAASGNLFDYYAMGWYRQAPGKERELVAAISTGTSTYADSVKGRFTISRDNAKNTVYLQMNSLKPEDTAVYYCAADVGIRPLNYHPYNYWGQGTQVTVSS", "polyreactivity (PSR sort gate)": "low polyreactivity"}, {"sequence": "QVQLVESGGGLVQAGGSLRLSCAASGNLFYGYAMGWYRQAPGKERELVAAISGSSTYYADSVKGRFTISRDNAKYTVYLQMNSLKPEDTAVYYCAVPQYLYLQAGHGFRYYYWGQGTQVTVSS", "polyreactivity (PSR sort gate)": "high polyreactivity"}, {"sequence": "QVQLVESGGGLVQAGGSLRLSCAASGNNFVYNPMGWYRPAPGKERELVAAIDSGGSTNYADSVKGRFTISRDNAKNTVYLQMNSLKPDDTAVYYCAADYFSTYRTIYYYWGQGTQVTVSS", "polyreactivity (PSR sort gate)": "low polyreactivity"}, {"sequence": "QVQLVESGGGLVQAGGSLRLSCAASGNNFWWNDMGWYRHAPGKERELVAAISWRGSSTYYADSVKGRFTISRDNAKYTVYLQMNSLKPEDSAVYYCAKPDRTCWLDGDYWGQGTQVTVSS", "polyreactivity (PSR sort gate)": "low polyreactivity"}, {"sequence": "QVQLVESGGGLVQAGGSLRLSCAASGNNFYNNAMGWYRQAPGKERELVATISRRGGRTYYADSVKGRFTISRDNAKNTVYLQMNSLKPEDTSVYYCNARFHGDYDYWGQGTQVTVSS", "polyreactivity (PSR sort gate)": "high polyreactivity"}, {"sequence": "QVQLVESGGGLVQAGGSLRLSCAASGNNFYVYAMGWYRQATGKERELVAAIRWSGGSTYYADSVKGRFTISRDNGKNTVYLQMNSLKPEDTAVYYCAADYYLYEYEYWGQGTQVTVSS", "polyreactivity (PSR sort gate)": "high polyreactivity"}, {"sequence": "QVQLVESGGGLVQAGGSLRLSCAASGNPFTWYTMGWYRPAPGKERDLVAVSTSDGSKYYADSVKGRFTISRDNAKNTVYLQMNSLKPEDTAVYYCNAGGGTNYGSGYWYGYYYWGQGTQVTVSS", "polyreactivity (PSR sort gate)": "low polyreactivity"}, {"sequence": "QVQLVESGGGLVQAGGSLRLSCAASGNSFPYYDMGWYRQAPGKERELVAAITSSASGTYYADSVKGRFTISRDNAKNTVYLQMNSLKPEDNAVYYCAAGVFFFTFDYWGQGTQVTVSS", "polyreactivity (PSR sort gate)": "low polyreactivity"}, {"sequence": "QVQLVESGGGLVQAGGSLRLSCAASGNTDVGYAMGWYRQAPGKETEFVAAISSRTGRTYYADTVKGRFTISRDNAKNTVFLQMISLKPEDTAVYYCAAVRGAPRYRYDYWGQGTQVTVSS", "polyreactivity (PSR sort gate)": "high polyreactivity"}, {"sequence": "QVQLVESGGGLVQAGGSLRLSCAASGNTFAENAMGWYRQAPGKERELVDAISNGGTTNYADSVKGRFTISRDNAKNTVYLQMNSLKPEDTAVYYCNAKFGISQPGHSGLLKMDYWGQGTQVTVSS", "polyreactivity (PSR sort gate)": "low polyreactivity"}, {"sequence": "QVQLVESGGGLVQAGGSLRLSCAASGNTFAQNTMGWYRQAPGKEREFVAGITFSGTGTYYADSVKGRFTISRDNAKNTVYLQMNSLKPEDTAVYYCAADTPTPGLFYWFYPHRGYWGQGTQVTVSS", "polyreactivity (PSR sort gate)": "low polyreactivity"}, {"sequence": "QVQLVESGGGLVQAGGSLRLSCAASGNTFATYAMGWYRQAPGKERELVAAITWSGGSTYYADSVKGRFTISRDNAKNNVYLQMNSLKPEDTAVYYCAADYLYYAIPAYYWDTGYDYWGQGTQVTVSS", "polyreactivity (PSR sort gate)": "low polyreactivity"}, {"sequence": "QVQLVESGGGLVQAGGSLRLSCAASGNTFAVNAMVWSRQAPGKERELVAAISRTGGRTYYADSVKGRFTISRDNAKNTVYLQMNSLKPEDTAVYYCAAEYYYTSQLAKYHYGYEYWGQGTQVTVSS", "polyreactivity (PSR sort gate)": "high polyreactivity"}, {"sequence": "QVQLVESGGGLVQAGGSLRLSCAASGNTFAYYAMGWYRQAPGKERELVAAITSTGVRTYYADSVKGRFTISRDNAKNTVYFQMNSLKPEDTAVYYCNAEYWRVWYLHYYYEYDYWGQGTQVTVSS", "polyreactivity (PSR sort gate)": "high polyreactivity"}, {"sequence": "QVQLVESGGGLVQAGGSLRLSCAASGNTFCPYAMGWYRPAPGKERELVARISRSGSSTYYADSVKGRFTISRDNAKNTVYLQMNSLKPEDSAVYYCARGRTIRSSRTVGSWGQGTQVTVSS", "polyreactivity (PSR sort gate)": "high polyreactivity"}, {"sequence": "QVQLVESGGGLVQAGGSLRLSCAASGNTFFIYAMGWYRPAPGKERELVAAITYSGGGTYYADSVKGRFTISRDNAKNTVYLQMYSLKPDDTAVYYCAADFYTGWSYIYDYWGHGTQVTVSS", "polyreactivity (PSR sort gate)": "high polyreactivity"}, {"sequence": "QVQLVESGGGLVQAGGSLRLSCAASGNTFFPYTMGWYRQAPGKERELVAAITWSGVSTYYADSVKGRFTISRDNAKNTVYLQMNSLKPEDTAVYYCAAGPGYVRYPRSGVWYVTLYDYWGQGTQVTVSS", "polyreactivity (PSR sort gate)": "high polyreactivity"}, {"sequence": "QVQLVESGGGLVQAGGSLRLSCAASGNTFGENAMGWDRQAPRKETELVAAITYGGTTNYADSVKGRFTISRDNAKNTVYLQMNSLKPEDTAVYYCNAKFGISQPGHSGLLKMDYWGQGTQVTVSS", "polyreactivity (PSR sort gate)": "low polyreactivity"}, {"sequence": "QVQLVESGGGLVQAGGSLRLSCAASGNTFGKYGVGWYRQAPGKEREFVAAITSRGTSTYYADSVKGRFTISRDNEKNTVYLQMNSLKPEDTAVYYCNARPRYKYPRYDYWGQGTQVTVSS", "polyreactivity (PSR sort gate)": "high polyreactivity"}, {"sequence": "QVQLVESGGGLVQAGGSLRLSCAASGNTFGLYAMGWYRQAPGKERELVATITWSVSTYADSVKGRFTISRDNAKNTVYLQMNSLKPEDTAVYYCAATTGPWYWRYDYWGQGTQVTVSS", "polyreactivity (PSR sort gate)": "high polyreactivity"}, {"sequence": "QVQLVESGGGLVQAGGSLRLSCAASGNTFGPYDMGWYRQAPGKERELVAGITSGGSTYYADSVKGRFTISRDNAKNTVYLQMNSLKPEDTAVYYCAADYYLWVYWYDYWGQGTQVTVSS", "polyreactivity (PSR sort gate)": "high polyreactivity"}, {"sequence": "QVQLVESGGGLVQAGGSLRLSCAASGNTFGRYAMGWSRQAPGKEREFVAAIRWRGATTYYADSVKRRFTISRDNAKNPVDLQMNSMKPEDTAVYYCAAYYWGQGTGFDYWGQGTQVTVSS", "polyreactivity (PSR sort gate)": "high polyreactivity"}, {"sequence": "QVQLVESGGGLVQAGGSLRLSCAASGNTFIYYAMGWYRQAPGKERELVAAITWSGGSTYYADSVKGRFTISRDNAKNTVYLQMNSLKPEDTAVYYCAKFTHNYYYWGQGTQVTVSS", "polyreactivity (PSR sort gate)": "high polyreactivity"}, {"sequence": "QVQLVESGGGLVQAGGSLRLSCAASGNTFKYYAMGWYRQAPGKERELVATISRTAGSTYYADSVKGRFTISRDNAKNTVYLQMNSLKPDDTAVYYCNKDRGHPFKYDYWGQGTQVTVSS", "polyreactivity (PSR sort gate)": "low polyreactivity"}, {"sequence": "QVQLVESGGGLVQAGGSLRLSCAASGNTFLYYGMGWYRQAPGKERELVAAITQSGGTTYYADSVKGRCTISRDNAKNPVYLQMNSLKPEDTAVYYCAATRYYYYWYVYDDRGDYWGQGTQVTVSS", "polyreactivity (PSR sort gate)": "low polyreactivity"}, {"sequence": "QVQLVESGGGLVQAGGSLRLSCAASGNTFPRYVMGWYRQAPGKERELVADITRRGGSTYYADSVKGRFTISRDNAKNTVYLQMNSLKPEDTAVYYCAALYLYGHQFYNDYYYWGQGTQVTVSS", "polyreactivity (PSR sort gate)": "high polyreactivity"}, {"sequence": "QVQLVESGGGLVQAGGSLRLSCAASGNTFPTNVMGWYRQAPGKERELVAAITRSGGTTYYADSVKGRFTISRDNAKNTVYLQMNSLKPEDTAVYYCAAGPTQGWGRGYWGQGTQVTVSS", "polyreactivity (PSR sort gate)": "high polyreactivity"}, {"sequence": "QVQLVESGGGLVQAGGSLRLSCAASGNTFRIYTMGWYRQSPGKEMELVATITRRGGSTYYADSVKGRFTISRDYAKNTVYLQMKSLKPEDTAVYYCAATTKLPRGHYWNYYWGQGTQVTVSS", "polyreactivity (PSR sort gate)": "high polyreactivity"}, {"sequence": "QVQLVESGGGLVQAGGSLRLSCAASGNTFRIYTMVWYRQAPGKERELVATITRRGGSTYYADSVKGRFTISRDNAMNTVYLQMNSLKPEDTVVYYCAARVRGTGVYGGYNYWGQGTLVTVSS", "polyreactivity (PSR sort gate)": "high polyreactivity"}, {"sequence": "QVQLVESGGGLVQAGGSLRLSCAASGNTFRRYAMGWYRQAPGKEREFVAAISSSGGRTYYADSVKGRFTISRDNAKNTVYVQMNSLKPEDTAVYYCNAVSYWVRGEMDYWGQGTQVTVSS", "polyreactivity (PSR sort gate)": "high polyreactivity"}, {"sequence": "QVQLVESGGGLVQAGGSLRLSCAASGNTFRSYAMGWYRQAPGKERELVAAISSTGNTYYADSVKGRFTISRDNAKNTVYLQMNSLKPEDTAVYYCAASKWRRADYYYWGQGTQVTVSS", "polyreactivity (PSR sort gate)": "high polyreactivity"}, {"sequence": "QVQLVESGGGLVQAGGSLRLSCAASGNTFSGTTMGWYRQAPGKERELVAAIRFTGGSTTYADSVKGRFTISRDNAKNTVYLQMNRLKPEDTAVYYCNTDWVSFRSIYHEYDYWGQGTQVTVSS", "polyreactivity (PSR sort gate)": "low polyreactivity"}, {"sequence": "QVQLVESGGGLVQAGGSLRLSCAASGNTFSQYAMGWYRQAPGKERELVATISKSSGSTSYADSVKGRFTISRDNAKNTVYLQMNSLKPEDTAVYYCNADSSDVYHHLGVLFFSTWYDYWGQGTQVTVSS", "polyreactivity (PSR sort gate)": "low polyreactivity"}, {"sequence": "QVQLVESGGGLVQAGGSLRLSCAASGNTFTWYTMGWYRQAPGKERELVAGITWSGGSTFYADSVKGRFTISRDNAKNTVYLQMNSLKPEDTAVYYCAVSTEVNRYHAKYDYWGQGTQVTVSS", "polyreactivity (PSR sort gate)": "low polyreactivity"}, {"sequence": "QVQLVESGGGLVQAGGSLRLSCAASGNTFTWYTMGWYRQAPGKERELVAVITSDGSTYYADSVKGRFTISRDNAKNTVYLQMNRLKPEDTAVYYCNALSADWYPEEDYWGQGTQVTVSS", "polyreactivity (PSR sort gate)": "low polyreactivity"}, {"sequence": "QVQLVESGGGLVQAGGSLRLSCAASGNTFTYYALGWYRQAPGTEREVVASISSGGSTNYADSVKGRFTISRDNAKNTVYLQMNRLKPEDTAVYYCARGWSFSTRRFQHTRYYYWGQGTQVTVSS", "polyreactivity (PSR sort gate)": "high polyreactivity"}, {"sequence": "QVQLVESGGGLVQAGGSLRLSCAASGNTFVAYTMGWYRPAPGKERELVAAISWRGGTTYYADSVKGRFTISRDNAKNTVYLQMNSLKPEDTAVYYCAARTSYISHGYVTHGLYYWGQGTQVTVSS", "polyreactivity (PSR sort gate)": "high polyreactivity"}, {"sequence": "QVQLVESGGGLVQAGGSLRLSCAASGNTFVDYAMGWYRQAPGKERELVAAISDGGSTNYADSVKGRFTISRDNAKNTVYLQMNSLKPEDTAVYYCAKDELYIPGVWPYYEYDYWGQGTQLTVSS", "polyreactivity (PSR sort gate)": "low polyreactivity"}, {"sequence": "QVQLVESGGGLVQAGGSLRLSCAASGNTFVPYAMGWYRQAPGKERELVAAITFSAGRTYYADSVKGRFTISRDNAKNTVYLQMNSLKPEDTAVYYCNVYWYNNYRGYYYWGQGTQVTVSS", "polyreactivity (PSR sort gate)": "high polyreactivity"}]}]}
